From patent publication US20240166695A1, “PEPTIDIC POSITIVE ALLOSTERIC MODULATORS TARGETING TRPV1” (priority 2021, published 2024)

Experiments:
TRPV1-YFP [1] = experiment: FRET ratio regression, design-CFP and TRPV1-YFP co-expressed in HEK293 cells; parameters: Apparent KD (FRET ratio fit): unit not given here
TRPV1-YFP [2] = experiment: spectraFRET in live HEK293 cells, CFP on design, YFP on TRPV1; indistinguishable from CFP+YFP negative control
TRPV1-YFP [3] = experiment: spectraFRET in live HEK293 cells, CFP on design, YFP on TRPV1

Binder	Apparent KD (FRET ratio fit) (TRPV1-YFP [1])	FRET efficiency (TRPV1-YFP [2]) [%]	FRET ratio max (TRPV1-YFP [1])	FRET efficiency (TRPV1-YFP [3]) [%]
De4-CFP (designed binder, not shown: large carriers) LPESPRFAQKIWQQSVIGDYLARFKNDRVKALKAMEDSSNNSSMHRFAEFFAKAFEDLHRYLEEL	9.5e+09	3.8		
De1-CFP (designed binder, not shown: large carriers) NGYSSEDKLRIAKRHLLPKQIERNALKKGELFVSEFAILGIILFYTDEAGVRGLEREISKLCRKAVKQLLLDKSTTSSHASGFHLHDYLGVMR	120000		3.86	
De2-CFP (designed binder, not shown: large carriers) NGYWSEDKERIAKRHLLPKQIERNALKKGELKVWEFAIFGIILFYTWEAGVRGLEREISKLCRKAVKQLLLDKSTTRSWASGFHLHDYLGVMR	75000		2.35	7.4
